Measured values taken from publication PMC11531485, “Examining prestructured β-actin peptides as substrates of histidine methyltransferase SETD3” (Scientific Reports, 2024).
Positions of bridges follow the written chain, without caps; N, C: chain ends. No end group written: not given here.

T1: human SETD3 histidine methyltransferase (human, UniProt Q86TU7 1-594)
T1 sequence (looked up): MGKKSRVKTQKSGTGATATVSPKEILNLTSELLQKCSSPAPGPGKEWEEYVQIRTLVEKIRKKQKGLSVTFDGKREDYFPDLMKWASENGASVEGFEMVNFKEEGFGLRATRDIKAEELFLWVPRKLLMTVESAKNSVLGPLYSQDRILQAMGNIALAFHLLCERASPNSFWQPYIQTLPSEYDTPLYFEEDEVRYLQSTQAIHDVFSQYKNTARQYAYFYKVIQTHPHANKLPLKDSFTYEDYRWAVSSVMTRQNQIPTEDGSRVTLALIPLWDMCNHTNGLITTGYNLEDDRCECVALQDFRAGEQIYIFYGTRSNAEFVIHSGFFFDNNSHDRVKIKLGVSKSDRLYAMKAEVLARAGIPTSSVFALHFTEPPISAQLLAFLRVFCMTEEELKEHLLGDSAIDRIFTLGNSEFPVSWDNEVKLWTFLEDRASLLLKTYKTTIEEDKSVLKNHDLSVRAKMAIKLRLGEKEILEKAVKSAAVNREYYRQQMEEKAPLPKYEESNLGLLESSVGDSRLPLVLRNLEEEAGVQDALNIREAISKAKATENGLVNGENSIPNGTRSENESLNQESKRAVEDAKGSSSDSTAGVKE


Experiments:
[1] = target: T1, human SETD3 histidine methyltransferase; test: cell-based or functional assay
[2] = target: T1, human SETD3 histidine methyltransferase; test: ITC; βA peptides (700-850 µM) titrated into SETD3 (30 µM) preincubated with SAH (350 µM) for 1 h; 20 mM Tris, 200 mM NaCl, pH 8.0; MicroCal PEAQ-ITC; One Set of Sites model; details: both partners purified
[3] = target: T1, human SETD3 histidine methyltransferase; test: cell-based or functional assay; remark: listed apart in the source

Binder	IC50 of inhibition of SETD3-catalysed methylation of the βA-H73 peptide, MALDI-TOF MS single point assay (10 and 100 µM peptide, 360 nM SETD3, 100 µM SAM) [1]	Kd [2]	kcat of SETD3-catalysed methylation, MALDI-TOF MS steady-state kinetics (200 nM SETD3, 100 µM SAM, pH 9.0, 37 °C) [3]	kcat/Km of SETD3-catalysed methylation, MALDI-TOF MS steady-state kinetics (200 nM SETD3, 100 µM SAM, pH 9.0, 37 °C) [3]
TLKYPIEHGKVTNWDD-NH2 (lactam 7-10) [stapled βA peptide 9 (cyclic lactam, Glu72-Lys75)]	> 100 µM	24 µM		
TLKYPIEHGIVTNWDD-NH2 [linear β-actin peptide (βA-H73, natural sequence)]		2.46 µM	148 min^-1	5.78 µM^-1min^-1
